Experimental data as given in patent US20180251535A1 (ARMAGEN, published 2018).
One block for each molecule: values may come before it.

Columns and labels:
[1] = biological target: human insulin receptor extracellular domain (HIR ECD) (human) (UniProt P06213); test: ELISA, HIR ECD plated
[2] = biological target: human insulin receptor extracellular domain (HIR ECD) (human) (UniProt P06213); test: ELISA, HIR ECD plated, detection with biotinylated goat anti-human IgG
[3] = biological target: T1, human insulin receptor extracellular domain (HIR ECD) (human, UniProt P06213 28-956, limits assumed); test: ELISA, HIR ECD plated, same methods as for FIG. 11
T1 construct: extracellular domain; Purified on a wheat germ agglutinin column from serum free medium of CHO cells permanently transfected with the HIR ECD (Coloma et al. 2000)
Description: (§1) The affinity of the fusion protein for the HIR extracellular domain (ECD) was determined with an ELISA. CHO cells permanently transfected with the HIR ECD were grown in serum free media (SFM), and the HIR ECD was purified with a wheat germ agglutinin affinity column, as previously described in Coloma et al. (2000) Pharm Res, 17:266-274. The HIR ECD was plated on Nunc-Maxisorb 96 well dishes and the binding of the HIR Ab, or the HIR Ab-IDS fusion protein, to the HIR ECD was detected with a biotinylated goat anti-human IgG (H+L) secondary antibody, followed by avidin and biotinylated peroxidase (Vector Labs, Burlingame, CA). The concentration of either HIR Ab or HIR Ab-IDS fusion protein that gave 50% maximal binding was determined with a non-linear regression analysis.

[4] = biological target: T1, human insulin receptor extracellular …; test: ELISA, HIR ECD plated on Nunc-Maxisorb wells, detection with biotinylated goat anti-human IgG
Description: as §1

reduction in receptor binding affinity (against the HIR Ab) [1]: 95%
EC50 [2]: 4.8 nM
Molecule: GUSB-HIR Ab fusion protein (GUSB fused to the amino terminus of the HIR Ab heavy chain) (from UniProt P08236 23-633)

EC50 [3]: 0.41 nM
EC50 [4]: 0.32 nM
B1: chimeric HIRMAb (chimeric monoclonal antibody to the human insulin receptor) (antibody, human IgG1, kappa, V domains shown)
VH: QVQLQQSGPELVKPGALVKISCKASGYTFTNYDIHWVKQRPGQGLEWIGWIYPGDGSTKYNEKFKGKATLTADKSSSTAYMHLSSLTSEKSAVYFCAREWAYWGQGTLVTVSA
VL: DIQMTQSPSSLSASLGERVSLTCRASQDIGGNLYWLQQGPDGTIKRLIYATSSLDSGVPKRFSGSRSGSDYSLTISSLESEDFVDYYCLQYSSSPWTFGGGTKMEIKR
notes: Human IgG1 constant region, kappa light chain; also called HIR Ab; chimeric HIR Ab
